Literature values in paper PMC10466379.

Experiments:
Assay in all cases: not stated (values taken from the PKAD database; the article says PKAD values come mainly from NMR or IR titrations)
Details in all cases: not stated (the curated set excludes proteins with ligands, nucleic acids and structural metal ions)
Glu20 = Glu20 (UniProt position 102, IKAIDEDTVKL)
Glu37 = Glu37 (UniProt position 119, MTFRLELVDTP)
Glu118 = Glu118 (UniProt position 200, YVYKPENTHEQ)
Glu90 = Glu90 (UniProt position 172, YGRGLEYIYAD)
Glu23 = Glu23 (UniProt position 105, IDGDTEKLMYK)
Glu100 = Glu100 (UniProt position 182, DGKMVEEALVR)
Glu91 = Glu91 (UniProt position 173, GRGLAEIYADG)
Glu72 = Glu72 (UniProt position 154, ENAKKEEVEFD)
Glu132 = Glu132 (UniProt position 214, KSEAQEKKEKL)
Glu62 = Glu62 (UniProt position 144, EASAFEKKMVE)
Glu41 = Glu41 (UniProt position 123, LLLVDEPETKH)
Glu25 = Glu25 (UniProt position 107, GDTVKEMYKGQ)
Glu34 = Glu34 (UniProt position 116, GQPMTERLLLV)
Glu38 = Glu38 (UniProt position 120, TFRLLEVDTPE)

## staphylococcal nuclease variant G20E (parent PDB 2LKV) (Staphylococcus aureus (inferred from PDB 2LKV; not stated in the article); G20E)
Glu20
  pKa: 4.5

## staphylococcal nuclease variant L37E (parent PDB 2LKV) (Staphylococcus aureus (inferred from PDB 2LKV; not stated in the article); L37E)
Glu37
  pKa: 5.2

## staphylococcal nuclease variant N118E (parent PDB 2LKV) (Staphylococcus aureus (inferred from PDB 2LKV; not stated in the article); N118E)
Glu118
  pKa: 4.5

## staphylococcal nuclease variant A90E (parent PDB 2LKV) (Staphylococcus aureus (inferred from PDB 2LKV; not stated in the article); A90E)
Glu90
  pKa: 6.4

## staphylococcal nuclease variant V23E (parent PDB 2LKV) (Staphylococcus aureus (inferred from PDB 2LKV; not stated in the article); V23E)
Glu23
  pKa: 7.1

## staphylococcal nuclease variant N100E (parent PDB 2LKV) (Staphylococcus aureus (inferred from PDB 2LKV; not stated in the article); N100E)
Glu100
  pKa: 7.6

## staphylococcal nuclease variant Y91E (parent PDB 2LKV) (Staphylococcus aureus (inferred from PDB 2LKV; not stated in the article); Y91E)
Glu91
  pKa: 7.1

## staphylococcal nuclease variant I72E (parent PDB 2LKV) (Staphylococcus aureus (inferred from PDB 2LKV; not stated in the article); I72E)
Glu72
  pKa: 7.3

## staphylococcal nuclease variant A132E (parent PDB 2LKV) (Staphylococcus aureus (inferred from PDB 2LKV; not stated in the article); A132E)
Glu132
  pKa: 7

## staphylococcal nuclease variant T62E (parent PDB 2LKV) (Staphylococcus aureus (inferred from PDB 2LKV; not stated in the article); T62E)
Glu62
  pKa: 7.7

## staphylococcal nuclease variant T41E (parent PDB 2LKV) (Staphylococcus aureus (inferred from PDB 2LKV; not stated in the article); T41E)
Glu41
  pKa: 6.8

## staphylococcal nuclease variant L25E (parent PDB 2LKV) (Staphylococcus aureus (inferred from PDB 2LKV; not stated in the article); L25E)
Glu25
  pKa: 7.5

## staphylococcal nuclease variant F34E (parent PDB 2LKV) (Staphylococcus aureus (inferred from PDB 2LKV; not stated in the article); F34E)
Glu34
  pKa: 7.3

## staphylococcal nuclease variant L38E (parent PDB 2LKV) (Staphylococcus aureus (inferred from PDB 2LKV; not stated in the article); L38E)
Glu38
  pKa: 6.8
